# Experimental data as given in patent US20240228579A1 (Innovent, published 2024).
# Target: T1, human C1q (human, UniProt P02745 23-245; P02746 28-253; P02747 29-245)
# T1 construct: Bought C1q (Complement Technology); also called C1q antigen
# Assay: BLI (Octet), biotinylated antibody on SA sensor
# Method: The antibody was diluted to approximately 100 nM, and C1q (Δ099, Complement Technology) was diluted to 40 nM.
# Detection was conducted using Fortebio Octet Red96e, and the sensors were arranged according to the positions of the samples. […] After the experiment was completed, KD values were analyzed using ForteBio Octet analysis software, the coordinate axis data were derived, and Graphpad Prism 8 software was used for plotting.
# T1 sequence (P02745 23-245 limits assumed, chain 1 of 3): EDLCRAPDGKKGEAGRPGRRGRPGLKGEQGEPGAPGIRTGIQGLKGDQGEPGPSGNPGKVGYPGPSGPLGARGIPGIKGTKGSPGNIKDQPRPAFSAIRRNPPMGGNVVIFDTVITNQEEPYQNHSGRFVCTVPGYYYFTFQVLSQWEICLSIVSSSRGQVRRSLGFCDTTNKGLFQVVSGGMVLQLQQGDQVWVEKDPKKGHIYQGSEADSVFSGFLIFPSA
# T1 sequence (P02746 28-253 limits assumed, chain 2 of 3): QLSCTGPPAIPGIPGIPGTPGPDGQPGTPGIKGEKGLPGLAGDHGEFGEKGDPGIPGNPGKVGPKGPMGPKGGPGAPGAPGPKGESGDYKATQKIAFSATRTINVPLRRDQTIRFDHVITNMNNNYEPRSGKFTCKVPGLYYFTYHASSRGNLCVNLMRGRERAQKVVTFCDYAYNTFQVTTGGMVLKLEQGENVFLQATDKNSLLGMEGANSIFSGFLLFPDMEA
# T1 sequence (P02747 29-245 limits assumed, chain 3 of 3): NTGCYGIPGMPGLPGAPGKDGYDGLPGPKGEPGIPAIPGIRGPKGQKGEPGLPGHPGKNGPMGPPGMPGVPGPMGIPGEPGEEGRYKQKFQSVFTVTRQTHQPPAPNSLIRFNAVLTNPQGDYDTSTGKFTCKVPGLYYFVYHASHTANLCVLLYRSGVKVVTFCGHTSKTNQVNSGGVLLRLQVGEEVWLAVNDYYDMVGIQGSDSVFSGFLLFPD
row,binding result,Binder
1,no binding (tested: C1q 40 nM),"Fcmut-18 (antibody, human IgG4 S228P, kappa, IgG4-mut: deletion of 329 (EU index)) heavy: QVQLVQSGAEVKKPGSSVKVSCKASGYSFSSYNIHWVRQAPGQGLEWMGYIAPFQGDSRYNQKFKGRVTITADKSTSTAYMELSSLRSEDTAVYYCARLNRGNSLDYWGQGTLVTVSSASTKGPSVFPLAPCSRSTSESTAALGCLVKDYFPEPVTVSWNSGALTSGVHTFPAVLQSSGLYSLSSVVTVPSSSLGTKTYTCNVDHKPSNTKVDKRVESKYGPPCPPCPAPEFLGGPSVFLFPPKPKDTLMISRTPEVTCVVVDVSQEDPEVQFNWYVDGVEVHNAKTKPREEQFNSTYRVVSVLTVLHQDWLNGKEYKCKVSNKGLSSIEKTISKAKGQPREPQVYTLPPSQEEMTKNQVSLTCLVKGFYPSDIAVEWESNGQPENNYKTTPPVLDSDGSFFLYSRLTVDKSRWQEGNVFSCSVMHEALHNHYTQKSLSLSLGK light: not shown"
2,no binding (tested: C1q 40 nM),"Fcmut-19 (antibody, human IgG4 S228P, kappa, IgG4-mut: deletion of 329, G at 330 (EU index)) heavy: QVQLVQSGAEVKKPGSSVKVSCKASGYSFSSYNIHWVRQAPGQGLEWMGYIAPFQGDSRYNQKFKGRVTITADKSTSTAYMELSSLRSEDTAVYYCARLNRGNSLDYWGQGTLVTVSSASTKGPSVFPLAPCSRSTSESTAALGCLVKDYFPEPVTVSWNSGALTSGVHTFPAVLQSSGLYSLSSVVTVPSSSLGTKTYTCNVDHKPSNTKVDKRVESKYGPPCPPCPAPEFLGGPSVFLFPPKPKDTLMISRTPEVTCVVVDVSQEDPEVQFNWYVDGVEVHNAKTKPREEQFNSTYRVVSVLTVLHQDWLNGKEYKCKVSNKGLGSIEKTISKAKGQPREPQVYTLPPSQEEMTKNQVSLTCLVKGFYPSDIAVEWESNGQPENNYKTTPPVLDSDGSFFLYSRLTVDKSRWQEGNVFSCSVMHEALHNHYTQKSLSLSLGK light: not shown"
3,no binding (tested: C1q 40 nM),"Fcmut-10 (antibody, human IgG2, kappa, IgG2-mut: deletion of 329 (EU index); anti-claudin18.2 variable regions of Fcmut-01) heavy: QVQLVQSGAEVKKPGSSVKVSCKASGYSFSSYNIHWVRQAPGQGLEWMGYIAPFQGDSRYNQKFKGRVTITADKSTSTAYMELSSLRSEDTAVYYCARLNRGNSLDYWGQGTLVTVSSASTKGPSVFPLAPCSRSTSESTAALGCLVKDYFPEPVTVSWNSGALTSGVHTFPAVLQSSGLYSLSSVVTVPSSNFGTQTYTCNVDHKPSNTKVDKTVERKCCVECPPCPAPPVAGPSVFLFPPKPKDTLMISRTPEVTCVVVDVSHEDPEVQFNWYVDGVEVHNAKTKPREEQFNSTFRVVSVLTVVHQDWLNGKEYKCKVSNKGLAPIEKTISKTKGQPREPQVYTLPPSREEMTKNQVSLTCLVKGFYPSDISVEWESNGQPENNYKTTPPMLDSDGSFFLYSKLTVDKSRWQQGNVFSCSVMHEALHNHYTQKSLSLSPGK light: not shown"
4,no binding (tested: C1q 40 nM),"Fcmut-14 (antibody, human IgG2, kappa, IgG2-mut: A at 234, deletion of 329 (EU index)) heavy: QVQLVQSGAEVKKPGSSVKVSCKASGYSFSSYNIHWVRQAPGQGLEWMGYIAPFQGDSRYNQKFKGRVTITADKSTSTAYMELSSLRSEDTAVYYCARLNRGNSLDYWGQGTLVTVSSASTKGPSVFPLAPCSRSTSESTAALGCLVKDYFPEPVTVSWNSGALTSGVHTFPAVLQSSGLYSLSSVVTVPSSNFGTQTYTCNVDHKPSNTKVDKTVERKCCVECPPCPAPPAAGPSVFLFPPKPKDTLMISRTPEVTCVVVDVSHEDPEVQFNWYVDGVEVHNAKTKPREEQFNSTFRVVSVLTVVHQDWLNGKEYKCKVSNKGLAPIEKTISKTKGQPREPQVYTLPPSREEMTKNQVSLTCLVKGFYPSDISVEWESNGQPENNYKTTPPMLDSDGSFFLYSKLTVDKSRWQQGNVFSCSVMHEALHNHYTQKSLSLSPGK light: not shown"
5,no binding (tested: C1q 40 nM),"Fcmut-15 (antibody, human IgG2, kappa, IgG2-mut: A at 234, deletion of 329, G at 330 (EU index)) heavy: QVQLVQSGAEVKKPGSSVKVSCKASGYSFSSYNIHWVRQAPGQGLEWMGYIAPFQGDSRYNQKFKGRVTITADKSTSTAYMELSSLRSEDTAVYYCARLNRGNSLDYWGQGTLVTVSSASTKGPSVFPLAPCSRSTSESTAALGCLVKDYFPEPVTVSWNSGALTSGVHTFPAVLQSSGLYSLSSVVTVPSSNFGTQTYTCNVDHKPSNTKVDKTVERKCCVECPPCPAPPAAGPSVFLFPPKPKDTLMISRTPEVTCVVVDVSHEDPEVQFNWYVDGVEVHNAKTKPREEQFNSTFRVVSVLTVVHQDWLNGKEYKCKVSNKGLGPIEKTISKTKGQPREPQVYTLPPSREEMTKNQVSLTCLVKGFYPSDISVEWESNGQPENNYKTTPPMLDSDGSFFLYSKLTVDKSRWQQGNVFSCSVMHEALHNHYTQKSLSLSPGK light: not shown"
6,no binding (tested: C1q 40 nM),"Fcmut-11 (antibody, human IgG2, kappa, IgG2-mut: deletion of 329, G at 330 (EU index)) heavy: QVQLVQSGAEVKKPGSSVKVSCKASGYSFSSYNIHWVRQAPGQGLEWMGYIAPFQGDSRYNQKFKGRVTITADKSTSTAYMELSSLRSEDTAVYYCARLNRGNSLDYWGQGTLVTVSSASTKGPSVFPLAPCSRSTSESTAALGCLVKDYFPEPVTVSWNSGALTSGVHTFPAVLQSSGLYSLSSVVTVPSSNFGTQTYTCNVDHKPSNTKVDKTVERKCCVECPPCPAPPVAGPSVFLFPPKPKDTLMISRTPEVTCVVVDVSHEDPEVQFNWYVDGVEVHNAKTKPREEQFNSTFRVVSVLTVVHQDWLNGKEYKCKVSNKGLGPIEKTISKTKGQPREPQVYTLPPSREEMTKNQVSLTCLVKGFYPSDISVEWESNGQPENNYKTTPPMLDSDGSFFLYSKLTVDKSRWQQGNVFSCSVMHEALHNHYTQKSLSLSPGK light: not shown"
7,no binding (tested: C1q 40 nM),"Fcmut-13 (antibody, human IgG2, kappa, IgG2-mut: A at 234 (EU index)) heavy: QVQLVQSGAEVKKPGSSVKVSCKASGYSFSSYNIHWVRQAPGQGLEWMGYIAPFQGDSRYNQKFKGRVTITADKSTSTAYMELSSLRSEDTAVYYCARLNRGNSLDYWGQGTLVTVSSASTKGPSVFPLAPCSRSTSESTAALGCLVKDYFPEPVTVSWNSGALTSGVHTFPAVLQSSGLYSLSSVVTVPSSNFGTQTYTCNVDHKPSNTKVDKTVERKCCVECPPCPAPPAAGPSVFLFPPKPKDTLMISRTPEVTCVVVDVSHEDPEVQFNWYVDGVEVHNAKTKPREEQFNSTFRVVSVLTVVHQDWLNGKEYKCKVSNKGLPAPIEKTISKTKGQPREPQVYTLPPSREEMTKNQVSLTCLVKGFYPSDISVEWESNGQPENNYKTTPPMLDSDGSFFLYSKLTVDKSRWQQGNVFSCSVMHEALHNHYTQKSLSLSPGK light: not shown"
8,no binding (tested: C1q 40 nM),"Fcmut-12 (antibody, human IgG2, kappa, IgG2-mut: deletion of 329 and 330 (EU index)) heavy: QVQLVQSGAEVKKPGSSVKVSCKASGYSFSSYNIHWVRQAPGQGLEWMGYIAPFQGDSRYNQKFKGRVTITADKSTSTAYMELSSLRSEDTAVYYCARLNRGNSLDYWGQGTLVTVSSASTKGPSVFPLAPCSRSTSESTAALGCLVKDYFPEPVTVSWNSGALTSGVHTFPAVLQSSGLYSLSSVVTVPSSNFGTQTYTCNVDHKPSNTKVDKTVERKCCVECPPCPAPPVAGPSVFLFPPKPKDTLMISRTPEVTCVVVDVSHEDPEVQFNWYVDGVEVHNAKTKPREEQFNSTFRVVSVLTVVHQDWLNGKEYKCKVSNKGLPIEKTISKTKGQPREPQVYTLPPSREEMTKNQVSLTCLVKGFYPSDISVEWESNGQPENNYKTTPPMLDSDGSFFLYSKLTVDKSRWQQGNVFSCSVMHEALHNHYTQKSLSLSPGK light: not shown"
9,no binding (tested: C1q 40 nM),"Fcmut-16 (antibody, human IgG2, kappa, IgG2-mut: A at 234, deletion of 329 and 330 (EU index)) heavy: QVQLVQSGAEVKKPGSSVKVSCKASGYSFSSYNIHWVRQAPGQGLEWMGYIAPFQGDSRYNQKFKGRVTITADKSTSTAYMELSSLRSEDTAVYYCARLNRGNSLDYWGQGTLVTVSSASTKGPSVFPLAPCSRSTSESTAALGCLVKDYFPEPVTVSWNSGALTSGVHTFPAVLQSSGLYSLSSVVTVPSSNFGTQTYTCNVDHKPSNTKVDKTVERKCCVECPPCPAPPAAGPSVFLFPPKPKDTLMISRTPEVTCVVVDVSHEDPEVQFNWYVDGVEVHNAKTKPREEQFNSTFRVVSVLTVVHQDWLNGKEYKCKVSNKGLPIEKTISKTKGQPREPQVYTLPPSREEMTKNQVSLTCLVKGFYPSDISVEWESNGQPENNYKTTPPMLDSDGSFFLYSKLTVDKSRWQQGNVFSCSVMHEALHNHYTQKSLSLSPGK light: not shown"
